Drawing on patent publication US20230114801A1 (SYSTIMMUNE, published 2023), this text covers Kd for one molecule.

The target of test [1] is T1, human HER3 (human, UniProt P21860 20-643).
T1 construct: Soluble antigen in Octet; bought; also called human HER3 (Acro ER3-H5223)
Nature of the test: BLI (Octet), binder on AHC sensor, 200 nM human HER3, 1:1 fit; molecule has two HER3-binding domains, same value printed under D2 and D5. (In general: BLI is a label-free optical method that tracks binding on a fibre tip over time.)

Test [2] addresses T2, human CD3 (human, UniProt P07766 23-126; P04234 22-105).
T2 construct: also called His-tagged human CD3; human CD3 (Acro CDD-H52W1)
Put plainly: BLI (Octet), binder on AHC sensor, 100 nM human CD3, 1:1 fit.

The target in test [3] is T3, human EGFR (human, UniProt P00533 25-645, limits assumed).
T3 construct: Soluble antigen in Octet; construct not described
Put plainly: BLI (Octet), binder on AHC sensor, 200 nM human EGFR, 1:1 fit; molecule has two EGFR-binding domains, same value printed under D1 and D4.

B1: SI-75P8 (other)
chain 1: EVQLQESGGGLVQAGDSLSLSCLVSGRSFNSYTMGWFRQAPGKEREFVAAILWSGPTTYYADSVKGRFTISRDNAKNTVYLQMNSLKPEDTAVYYCAAALGVLVLAPGNVYSYWGQGTQVTVSSGGGGSGGGGSQVQLQESGGRLVQPGEPLSLTCKTSGIDLSSNAIGWVRQAPGKGLEWIGVIFGSGNTYYASWAKGRFTISRSTSTVYLKMNSLRSEDTAIYYCARGGYSSDIWGQGTLVTVSSASTKGPSVFPLAPSSKSTSGGTAALGCLVKDYFPEPVTVSWNSGALTSGVHTFPAVLQSSGLYSLSSVVTVPSSSLGTQTYICNVNHKPSNTKVDKRVEPKSCDKTHTCPPCPAPEAAGGPSVFLFPPKPKDTLMISRTPEVTCVVVDVSHEDPEVKFNWYVDGVEVHNAKTKPREEQYNSTYRVVSVLTVLHQDWLNGKEYKCAVSNKALPAPIEKTISKAKGQPREPQVYTLPPSRDELTKNQVSLSCAVKGFYPSDIAVEWESNGQPENNYKTTPPVLDSDGSFFLVSKLTVDKSRWQQGNVFSCSVMHEALHNHYTQKSLSLSPGGGGGSGGGGSQVQLQQSGPGLVKPSETLSITCTVSGFSLTNYGVHWIRQAPGKGLEWLGVIWSGGNTDYNTPFTSRFTITKDNSKNQVYFKLRSVRADDTAIYYCARALTYYDYEFAYWGQGTLVTVSSGGGGSGGGGSGGGGSGGGGSEIVLTQSPSTLSVSPGERATFSCRASQSIGTNIHWYQQKPGKPPRLLIKYASESISGIPDRFSGSGSGTEFTLTISSVQSEDFAVYYCQQNNNWPTTFGPGTKLTVL
chain 2: QVQLVQSGGGLVQAGGSLSLSCAFSGRTFSMYTMGWFRQAPGKEREFVAANRGRGLSPDIADSVNGRFTISRDNAKNTLYLQMDSLKPEDTAVYYCAADLQYGSSWPQRSSAEYDYWGQGTTVTVSSGGGGSGGGGSDPQLTQSPSSLSATVGQRVTINCQSSQSVAKNNNLAWFQQKPGKPPKLLIYSASTLAAGVPSRFSGSGSGTQFTLTITRVQSEDFATYYCSARDSGNIQSFGGGTRVEIKRTVAAPSVFIFPPSDEQLKSGTASVVCLLNNFYPREAKVQWKVDNALQSGNSQESVTEQDSKDSTYSLSSTLTLSKADYEKHKVYACEVTHQGLSSPVTKSFNRGECGGDKTHTCPPCPAPEAAGGPSVFLFPPKPKDTLMISRTPEVTCVVVDVSHEDPEVKFNWYVDGVEVHNAKTKPREEQYNSTYRVVSVLTVLHQDWLNGKEYKCAVSNKALPAPIEKTISKAKGQPREPQVYTLPPSRDELTKNQVSLWCLVKGFYPSDIAVEWESNGQPENNYKTTPPVLDSDGSFFLYSKLTVDKSRWQQGNVFSCSVMHEALHNRFTQKSLSLSPGGGGGSGGGGSQVQLQESGGGLVKPGGSLSLSCAASGFTFSSYWMSWVRQAPGKGLEWVANINRDGSASYYVDSVKGRFTISRDDAKNSLYLQMNSLRAEDTAVYYCARDRGVGYFDLWGRGTLVTVSSGGGGSGGGGSGGGGSQSALTQPASVSGSPGQSITISCTGTSSDVGGYNFVSWYQQHPGKAPKLMIYDVSDRPSGVSDRFSGSKSGNTASLIISGLQADDEADYYCSSYGSSSTHVIFGGGTKVTVL
notes: D1 αEGFR VHH, D2 αHER3 VHH, D3 αCD3* (Fab), D4 αEGFR scFv, D5 αHER3 scFv
On to B1, for which the values for the Kd in test [1], in test [2] and in test [3] were 0.786 nM, 44.1 nM and 6.22 nM, respectively.

As a reminder, the Kd is the concentration at which binding is half-saturated.
